In patent US20230265151A1, “GIP/GLP1 CO-AGONIST COMPOUNDS” (priority 2020, published 2023):
Positions count from the first letter of the chain named.

T1: human GIP receptor (human, UniProt P48546 22-466)
T1 construct: whole, on cells; also called hGIPR; human glucose-dependent insulinotropic polypeptide receptor
T1 sequence (looked up): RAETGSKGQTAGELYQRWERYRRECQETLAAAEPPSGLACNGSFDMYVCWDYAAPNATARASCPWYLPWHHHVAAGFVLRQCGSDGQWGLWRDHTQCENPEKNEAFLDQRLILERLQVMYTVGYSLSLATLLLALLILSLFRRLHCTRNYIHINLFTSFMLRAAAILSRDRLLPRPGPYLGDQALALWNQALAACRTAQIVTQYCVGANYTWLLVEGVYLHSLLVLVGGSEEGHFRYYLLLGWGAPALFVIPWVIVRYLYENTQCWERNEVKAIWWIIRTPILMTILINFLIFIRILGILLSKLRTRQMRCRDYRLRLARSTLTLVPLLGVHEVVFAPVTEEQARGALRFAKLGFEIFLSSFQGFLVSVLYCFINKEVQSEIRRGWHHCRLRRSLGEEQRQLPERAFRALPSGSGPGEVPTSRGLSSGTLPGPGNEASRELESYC

B1: Y-Aib-EGT-αMeF(2F)-TSD-4Pal-Aib-I-αMeL-LD-Orn-IAQ-Aib-EFIK((2-[2-(2-Amino-ethoxy)-ethoxy]-acetyl)2-(γ-Glu)-CO-(CH2)12-CO2H)-αMeY-LIK((2-[2-(2-Amino-ethoxy)-etho … (peptide)
peptide: YXEGTXTSDXXIXLDXIAQXEFIKXLIKGGPSSGAPPPS
modifications: Aib2, αMeF(2F)6, 4Pal10, Aib11, αMeL13, Orn16, Aib20, K24(Z1), αMeY25, K28(Z1), C-term NH2; Z1=AEEA2-(γ-Glu)-CO-(CH2)12-CO2H
B2: Y-Aib-EGT-αMeF(2F)-TSD-4Pal-αMeS-I-αMeL-LD-Orn-IAQ-Aib-EFIK((2-[2-(2-Amino-ethoxy)-ethoxy]-acetyl)2-(γ-Glu)-CO-(CH2)12-CO2H)-αMeY-LIK((2-[2-(2-Amino-ethoxy)-eth … (peptide)
peptide: B1 peptide
modifications: Aib2, αMeF(2F)6, 4Pal10, αMeS11, αMeL13, Orn16, Aib20, K24(Z1), αMeY25, K28(Z1), C-term NH2; Z1=AEEA2-(γ-Glu)-CO-(CH2)12-CO2H
B3: Y-Aib-EGT-αMeF(2F)-TSDK((2-[2-(2-Amino-ethoxy)-ethoxy]-acetyl)2-(γ-Glu)-CO-(CH2)10-CH3)SI-αMeL-LD-Orn-K((2-[2-(2-Amino-ethoxy)-ethoxy]-acetyl)2-(γ-Glu)-CO-(CH2) … (peptide)
peptide: YXEGTXTSDKSIXLDXKAQXEXIXXLIEGGPSSGAPPPS
modifications: Aib2, αMeF(2F)6, K10(Z1), αMeL13, Orn16, K17(Z1), Aib20, αMeF22, D-Glu24, αMeY25, C-term NH2; Z1=AEEA2-(γ-Glu)-CO-(CH2)10-CH3
B4: Y-Aib-EGT-αMeF(2F)-TSD-4Pal-SI-αMeL-LD-Orn-K((2-[2-(2-Amino-ethoxy)-ethoxy]-acetyl)2-(γ-Glu)-CO-(CH2)10-CH3)AQ-Aib-K((2-[2-(2-Amino-ethoxy)-ethoxy]-acetyl)2-(γ- … (peptide)
peptide: B3 peptide with K10X, E21K, X22F, E28X
modifications: Aib2, αMeF(2F)6, 4Pal10, αMeL13, Orn16, K17(Z1), Aib20, K21(Z1), D-Glu24, αMeY25, Orn28, C-term NH2; Z1=AEEA2-(γ-Glu)-CO-(CH2)10-CH3
B5: Y-Aib-EGT-αMeF(2F)-TSD-4Pal-SI-αMeL-LD-Orn-K((2-[2-(2-Amino-ethoxy)-ethoxy]-acetyl)2-(γ-Glu)-CO-(CH2)10-CH3)AQ-Aib-Orn-FI-(D-Glu)-αMeY-LIK((2-[2-(2-Amino-ethoxy … (peptide)
peptide: B3 peptide with K10X, E21X, X22F, E28K
modifications: Aib2, αMeF(2F)6, 4Pal10, αMeL13, Orn16, K17(Z1), Aib20, Orn21, D-Glu24, αMeY25, K28(Z1), C-term NH2; Z1=AEEA2-(γ-Glu)-CO-(CH2)10-CH3
B6: Y-Aib-EGT-αMeF(2F)-TSD-4Pal-SI-αMeL-LD-Orn-K((2-[2-(2-Amino-ethoxy)-ethoxy]-acetyl)2-(γ-Glu)-CO-(CH2)10-CH3)AQ-Aib-EFI-(D-Glu)-αMeY-LIEGGK((2-[2-(2-Amino-ethoxy … (peptide)
peptide: B3 peptide with K10X, X22F, P31K
modifications: Aib2, αMeF(2F)6, 4Pal10, αMeL13, Orn16, K17(Z1), Aib20, D-Glu24, αMeY25, K31(Z1), C-term NH2; Z1=AEEA2-(γ-Glu)-CO-(CH2)10-CH3
B7: Y-Aib-EGT-αMeF(2F)-TSDY-Aib-I-αMeL-LD-Orn-K((2-[2-(2-Amino-ethoxy)-ethoxy]-acetyl)2-(γ-Glu)-CO-(CH2)10-CH3)AQ-Aib-EFI-(D-Glu)-αMeY-LIEGGPSSGAPPPSK((2-[2-(2-Amin … (peptide)
peptide: YXEGTXTSDYXIXLDXKAQXEFIXXLIEGGPSSGAPPPSK
modifications: Aib2, αMeF(2F)6, Aib11, αMeL13, Orn16, K17(Z1), Aib20, D-Glu24, αMeY25, K40(Z1), C-term NH2; Z1=AEEA2-(γ-Glu)-CO-(CH2)10-CH3
B8: Y-Aib-EGT-αMeF(2F)-TSD-4Pal-Aib-I-αMeL-LD-Orn-K((2-[2-(2-Amino-ethoxy)-ethoxy]-acetyl)2-(γ-Glu)-CO-(CH2)10-CH3)AQ-Aib-EFI-(D-Glu)-αMeY-LIK((2-[2-(2-Amino-ethoxy … (peptide)
peptide: B1 peptide with I17K, K24X
modifications: Aib2, αMeF(2F)6, 4Pal10, Aib11, αMeL13, Orn16, K17(Z1), Aib20, D-Glu24, αMeY25, K28(Z1), C-term NH2; Z1=AEEA2-(γ-Glu)-CO-(CH2)10-CH3
B9: Y-Aib-EGT-aMeF(2F)-TSD-4Pal-Aib-I-aMeL-LD-Orn-K((2-[2-(2-Amino-ethoxy)-ethoxy]-acetyl)2-(γ-Glu)-CO-(CH2)10-CH3)AQ-Aib-GFIe-aMeY-LIK((2-[2-(2-Amino-ethoxy)-ethox … (peptide)
peptide: B1 peptide with I17K, E21G, K24X
modifications: Aib2, αMeF(2F)6, 4Pal10, Aib11, αMeL13, Orn16, K17(Z1), Aib20, D-Glu24 (printed e), αMeY25, K28(Z1), C-term NH2; Z1=AEEA2-(γ-Glu)-CO-(CH2)10-CH3
notes: G at position 21
B10: Y-Aib-EGT-αMeF(2F)-TSD-4Pal-Aib-I-αMeL-LD-Orn-K((2-[2-(2-Amino-ethoxy)-ethoxy]-acetyl)2-(γ-Glu)-CO-(CH2)10-CH3)AQ-Aib-K((2-[2-(2-Amino-ethoxy)-ethoxy]-acetyl)2- … (peptide)
peptide: B3 peptide with K10X, S11X, E21K, X22F
modifications: Aib2, αMeF(2F)6, 4Pal10, Aib11, αMeL13, Orn16, K17(Z1), Aib20, K21(Z1), D-Glu24, αMeY25, C-term NH2; Z1=AEEA2-(γ-Glu)-CO-(CH2)10-CH3

What was measured:
[1] = molecular target: T2, human glucagon receptor (human, UniProt P47871 26-477); assay: SPA competition vs [125I]-Gcg, hGcgR membranes
T2 construct: whole, on cells; also called hGCGR; hGcgR
T2 sequence (P47871 26-477): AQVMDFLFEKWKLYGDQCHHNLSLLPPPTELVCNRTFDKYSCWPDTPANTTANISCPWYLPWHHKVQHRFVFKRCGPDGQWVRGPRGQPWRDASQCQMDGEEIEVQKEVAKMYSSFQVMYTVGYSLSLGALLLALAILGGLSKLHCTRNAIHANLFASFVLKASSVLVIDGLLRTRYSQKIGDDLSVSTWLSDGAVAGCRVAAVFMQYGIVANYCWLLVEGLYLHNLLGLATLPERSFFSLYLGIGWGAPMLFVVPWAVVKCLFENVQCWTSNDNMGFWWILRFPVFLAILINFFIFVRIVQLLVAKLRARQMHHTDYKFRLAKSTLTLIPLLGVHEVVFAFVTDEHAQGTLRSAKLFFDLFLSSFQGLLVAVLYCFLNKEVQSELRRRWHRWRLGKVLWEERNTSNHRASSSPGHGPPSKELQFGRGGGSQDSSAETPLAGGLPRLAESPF
Method: The binding buffer contains 25 mM 4-(2-hydroxyethyl)-1-piperazineethanesulfonic acid (HEPES), pH 7.4, 2.5 mM CaCl₂, 1 mM MgCh, 0.1% (w/v) bacitracin (Research Products), 0.003% (w/v) Polyoxyethylenesorbitan monolaurate (TWEEN®-20), and Roche Complete™ Protease Inhibitors without EDTA. […] Plates are sealed and mixed on a plate shaker (setting 6) for 1 minute and read with a PerkinElmer Trilux MicroBeta® scintillation counter after 12 hours of incubation/settling time at room temperature.
Data are analyzed using four-parameter (curve maximum, curve minimum, IC₅₀, Hill slope) nonlinear regression routines (Genedata Screener, version 12.0.4, Genedata AG, Basal, Switzerland). […] Values for Kᵢ are reported as the geometric mean, with error expressed as the standard error of the mean (SEM) and n is equal to the number of independent replicates (determined in assays performed on different days).

[2] = molecular target: T3, human GLP-1 receptor (human, UniProt P43220 24-463); assay: SPA competition vs [125I]-GLP-1, hGLP-1R membranes
T3 construct: whole, on cells; also called hGLP-1R; human glucagon-like peptide-1 receptor
Procedure, shortened: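 Kᵢ values are geometric means (SEM) over replicates run on separate days, derived from IC₅₀ of four-parameter curve fits. Buffer: HEPES 25 mM pH 7.4 with CaCl₂ 2.5 mM, MgCl₂ 1 mM, bacitracin 0.1%, TWEEN-20 0.003%, EDTA-free protease inhibitors.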

[3] = molecular target: T1, human GIP receptor; assay: SPA competition vs [125I]-GIP, hGIPR membranes

| Binder | Ki [1] [nM] | Ki [2] [nM] | Ki [3] [nM] |
| --- | --- | --- | --- |
| B1 | 135 | 0.939 | 0.114 |
| B2 | 328 | 0.863 | 0.0491 |
| B3 | 23.1 | 0.211 | 0.022 |
| B4 | 14.3 | 0.119 | 0.0131 |
| B5 | 93.3 | 0.101 | 0.0215 |
| B6 | 44.8 | 0.154 | 0.0309 |
| B7 | 2.84 | 0.137 | 0.0228 |
| B8 | 75.5 | 0.325 | 0.0195 |
| B9 | 135 | 0.188 | 0.0197 |
| B10 | 2.91 | 0.234 | 0.0162 |
